Assay results reported in patent US12018327B2, “Methods and compositions relating to epoxide hydrolase genes” (The Regents of the University of California, priority 2018, dated 2024).

B1: NP_814872: Enterococcus faecalis epoxide hydrolase (HAD superfamily hydrolase) encoded by Gene 1, expressed in E. coli (protein)
chain: MSIKLVAIDIDGTLLNSQHKITPRVKEALQKANEQGVRIVLCTGRPLPGVKEQLDELALYGENDFVITYNGSLVQATKDNTIISRYTLSYEDFLEIEMYSRKVGAHLHTIDDSAIYTANRNIGKYTIHEASLVNMPLKYRTVDEMTPEMNIIKMMMIDEPEVLDPAIAKLPLHFTEKYTTVKSTPFYYEIMNKNASKGNALAKLADHLGLNKDEVMAIGDNENDLSMIDYAGIGVAMGNATENVKTIADVHTTSNDEDGVAQIIEKMVLI
B2: YP_003971333: Bifidobacterium bifidum PRL2010 hydrolase (epoxide hydrolase) encoded by Gene 3, expressed in E. coli (protein)
chain: MASDDIMTAGAGGATATVRADIKAAFFDIDGTLTSFVTHVIPQSSIDALHELQDRGVKVFICSGRAPSHMTVVLDMMPVHFDGIIALNGQYCFDDHGLLEKESLLPEDIVTITRWLDEHPDVVANYCEKDYVYFNQITDAMRATWRQLGKTAPTVNIDDPHERALKHETFQISPYISFEDEAKLSGMCRNVRGVRWHPDFTDLIPADGGKPEGMKRFMRHYGWTREQTIAFGDGGNDADMLAFAGIGVAMGNATEPAKAAADYITDDVDHDGIMNALKHFNVL
B3: YP_003971091: Bifidobacterium bifidum PRL2010 hydrolase (epoxide hydrolase) encoded by Gene 2, expressed in E. coli (protein)
chain: MSQHQVTTRQRRNVVLLDLDGTLTQSDPGIIACATKAFEELSLPVPDDQEMHRFIGPAIIESFRRNHMPDELLDRGVEIYREYYADKAVFDDPNNPGHKIPGRLYNSVYAGIPEQLAALRADGLHLAIATCKPQYQAEPVCEHFHLDTMVDGIYGASTDNSRIDKDQVIRYCFDSIGFDADAGDRALMVGDRWTDVDGAIACGLDCLGCRWGYAEAGELEEHGAYRIIDTVDELAAAVNDYFAK

Key:
PPARγ = biological target: T1, PPARγ (Homo sapiens, UniProt P37231); conditions: ref [19]; cited from earlier work
T1 sequence (P37231 1-505): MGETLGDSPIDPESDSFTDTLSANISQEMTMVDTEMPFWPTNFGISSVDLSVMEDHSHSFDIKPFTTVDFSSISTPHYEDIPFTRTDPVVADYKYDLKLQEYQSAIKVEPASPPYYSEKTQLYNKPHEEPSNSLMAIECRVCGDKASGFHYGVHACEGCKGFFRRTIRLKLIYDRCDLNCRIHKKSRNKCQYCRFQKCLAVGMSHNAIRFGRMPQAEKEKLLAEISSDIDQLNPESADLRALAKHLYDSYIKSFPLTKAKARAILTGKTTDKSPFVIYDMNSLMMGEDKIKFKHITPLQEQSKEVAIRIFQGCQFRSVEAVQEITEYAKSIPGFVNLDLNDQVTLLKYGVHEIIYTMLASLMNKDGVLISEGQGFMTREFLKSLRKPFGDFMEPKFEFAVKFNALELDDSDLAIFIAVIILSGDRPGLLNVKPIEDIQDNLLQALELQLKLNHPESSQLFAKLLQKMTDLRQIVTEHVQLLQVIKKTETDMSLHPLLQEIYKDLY

[1] = Colorimetric detection of EH activity, 12,13 EpOME; assay type: biochemical; conditions: gene expressed in E. coli BL21

Molecule	action on PPARγ (PPARγ)	conversion of 12,13 EpOME into 12,13 DiHOME [1]
CCCCC/C=C\CC(O)C(O)CCCCCCCC(=O)O (stereo not shown) [9,10 DiHOME]	known agonist	–
B1	–	could convert
B2	–	could convert
B3	–	could convert
